# Assay: soluble on expression in E. coli; label from the status in PepcDB or PDB records
row,Sequence,soluble on expression in E. coli
1,MVKVYAPASSANMSVGFDVLGAAVTPVDGALLGDVVTVEAAETFSLNNLGRFADKLPSEPRENIVYQCWERFCQELGKQIPVAMTLEKNMPIGSGLGSSACSVVAALMAMNEHCGKPLNDTRLLALMGELEGRISGSIHYDNVAPCFLGGMQLMIEENDIISQQVPGFDEWLWVLAYPGIKVSTAEARAILPAQYRRQDCIAHGRHLAGFIHACYSRQPELAAKLMKDVIAEPYRERLLPGFRQARQAVAEIGAVASGISGSGPTLFALCDKPETAQRVADWLGKNYLQNQEGFVHICRLDTAGARVLEN,soluble
2,MVLEHCRDAIESHGVETDIISLRGMKIESCRACLSCAKKHRCRIDDGLNDIIDRIRDSEGFIVATPVYFGTARGDLMAALQRIGMVSRASDGFLSWKVGGPIAVARRGGHTATIQELLMFYFINDMIVPGSTYWNMVFGWAPGEVEDDSEGIETIRRFGENVAELIKRINGGSLEHHHHHH,not soluble
3,MVLEKIEPAQEEHEKYHSNVKELSHKFGIPNLVARQIVNSCAQCQQKGEAIHGQVNAELGTWQMDCTHLEGKIIIVAVHVASGFIEAEVIPQESGRQTALFLLKLASRWPITHLHTDNGANFTSQEVKMVAWWIGIEQSFGVPYNPQSQGVVEAMNHHLKNQISRIREQANTIETIVLMAVHCMNFKRRGGIGDMTPSERLINMITTEQE,soluble
4,MVLGEYYAVAGHIGFGGKADARHMGNDPRRALVHPPFLPDFGQHIFFHRALEPENRWKRMAGRPRTSAARAFCRQ,not soluble
5,MVLIKEFRVVLPCSVQEYQVGQLYSVAEASKNETGGGEGIEVLKNEPYEKDGEKGQYTHKIYHLKSKVPAFVRMIAPEGSLVFHEKAWNAYPYCRTIVTNEYMKDDFFIKIETWHKPDLGTLENVHGLDPNTWKTVEIVHIDIADRSQVEPADYKADEDPALFQSVKTKRGPLGPNWKKELANSPDCPQMCAYKLVTIKFKWWGLQSKVENFIQKQEKRIFTNFHRQLFCWIDKWIDLTMEDIRRMEDETQKELETMRKRGSVRGTSAADV,soluble
6,MVLPKSKNQIGLGRAIQSDFTKNRRNRKGGLKHIVDSDPKAHRAALRSVTHETDLDEFLNTAELGEVEFIAEKQNVTVIQNPEQNPFLLSKEEAARSKQKQEKNKDRLTIPRRPHWDQTTTAVELDRMERESFLNWRRNLAQLQDVEGFIVTPFERNLEIWRQLWRVIERSDVVVQIVDARNPLFFRSAHLEQYVKEVGPSKKNFLLVNKADMLTEEQRNYWSSYFNENNIPFLFFSARMAAEANERGEDLETYESTSSNEIPESLQADENDVHSSRIATLKVLEGIFEKFASTLPDGKTKMTFGLVGYPNVGKSSTINALVGSKKVSVSSTPGKTKHFQTINLSEKVSLLDCPGLVFPSFATTQADLVLDGVLPIDQLREYTGPSALMAERIPKEVLETLYTIRIRIKPIEEGGTGVPSAQEVLFPFARSRGFMRAHHGTPDDSRAARILLKDYVNGKLLYVHPPPNYPNSGSEFNKEHHQKIVSATSDSITEKLQRTAISDNTLSAESQLVDDEYFQENPHVRPMVKGTAVAMQGPVYKGRNTMQPFQRRLNDDASPKYPMNAQGKPLSRRKARQLTALELGVSPEALSSATSKKHNKKNKRSKQRSGVVIDDY,soluble
7,MVNIMDEIIVVTTPTIPGYKIIEVKGIARGGIVMATHLGRDILALLRNIKGGEVKEYTQMMAEAREEALRRMIEHAKKLGANAVVNFRFATSNVGGGMAEVYAYGTAVVVEREKMASMTGGQQMGRIRIRLEHHHHHH,soluble
8,MVPELKQISRVEAMRLGPGWSHSCHAMLYAANPGQLFGRIPMRFSVLMQMRFDGLLGFPGGFVDRRFWSLEDGLNRVLGLGLGCLRLTEADYLSSHLTEGPHRVVAHLYARQLTLEQLHAVEISAVHSRDHGLEVLGLVRVPLYTQKDRVGGFPNFLSNAFVSTAKCQLLFALKVLNMMPEEKLVEALAAATEKQKKALEKLLPASSAHHHHHH,soluble
9,MVRLIHTLADHGDDVSCCAFSAALLATCSLDKTIRLYSLSDFAELPYSPLKFHTYAVHCCCFSPSGHVLASCSTDGTTVLWSSHSGHTLTVLEQPGGSPVRVCCFSPDSAYLASGAADGSIALWNAQTYKLYRCGSVKDSSLVACAFSPDGGLFVTGSSGGDLTVWDDRMRCLHSEKAHDLGITCCSFSSQPLSGGEGLQSYQLASCGQDCEIKLWAVTITRVLGFELKYKSTLSGHCAPVLACAFSHDGKMLASGSVDKSVIIHGIGPQSVLHTLTQHTRYVTTCAFAPNTLLLATGSMDKTVNIWQFDLETPCQGSMNDPLKHFTEEWSEEDVSVWLRAQGLEDLVGIFRANNIDGKELLHLTKESLAGDLKIESLGLRSKVLRSIEELRAKMDSLSSGIPDEFICPITRELMKDPVIASDGYSYEREAMESWIHKKKRTSPMTNLALPSLVLTPNRTLKMAINRWLETHEK,soluble
10,MVRVKVNDRIVEVPPGTSVMDAVFHAGYDVPLFCSEKHLSPIGACRMCLVRIGLPKKGPDGKPLLNEKGEPEIQWQPKLAASCVTAVADGMVVDTLSDVVREAQAGMVEFTLLNHPLDCPTCDKGGACELQDRTVEYGLYEKYYQKGPLELPVYTRFEFTRRHVDKHHPLSPFVILDRERCIHCKRCVRYFEEVPGDEVLDFIERGVHTFIGTMDFGLPSGFSGNITDICPVGALLDLTARFRARNWEMEETPTTCALCPVGCGITADTRSGELLRIRAREVPEVNEIWICDAGRFGHEWADQNRLKTPLVRKEGRLVEATWEEAFLALKEGLKEARGEEVGLYLAHDATLEEGLLASELAKALKTPHLDFQGRTAAPASLFPPASLEDLLQADFALVLGDPTEEAPILHLRLSEFVRDLKPPHRYNHGTPFADLQIKERMPRRTDKMALFAPYRAPLMKWAAIHEVHRPGEEREILLALLGDKEGSEMVAKAKEAWEKAKNPVLILGAGVLQDTVAAERARLLAERKGAKVLAMTPAANARGLEAMGVLPGAKGASWDEPGALYAYYGFVPPEEALKGKRFVVMHLSHLHPLAERYAHVVLPAPTFYEKRGHLVNLEGRVLPLSPAPIENGEAEGALQVLALLAEALGVRPPFRLHLEAQKALKARKVPEAMGRLSFRLKELRPKERKGAFYLRPTMWKAHQAVGKAQEAARAELWAHPETARAEALPEGAQVAVETPFGRVEARVVHREDVPKGHLYLSALGPAAGLRVEGRVLVPAGGEA,soluble
11,MVSEREQLACLVQQWNENRLDLFHLSYPTEDLEVEGVMRFYFQDGGEKVLTKCVRVSSTATTRAVVDALSEKFLPDLKMLSNDTYSLWEVHENGEERKLLDEEKPLVVQLQWHKDDREGRFLLKKDAAPPVSLLNLQEADQKNTRFAKKKDKEPKKKNQKNFVQVNGGREEAQSQDDIYKQVPFNTFTRTISNPEAVMRKRREKKLETKLKEMMFGGSLKVYGGEIVPTRPYVSILAEINENADRILGAALEKYGLEHSKDDFILVEVSNDDDRKSMSDLREIDGRPIPPTECPLFEMTARSGNGENGFDSFLAIKRKPHDYQVPSTSVVAPSSVTLPMSPLTSLPPQIHNLPVLIVMNNDGHLSTHRITLHEGVTEVGSDSQMSNFSQHNIYLDGPDIRGRHAAIAFMEGVVTLTPSTRDAYLEVNGHQLMQTEILRDGDHIRIGADHSFKFSTSSSQANQINSTNISNSNQRHFQQQTFYPEMADSRASTARCAPSDYCSLPQQNDYYPPSMSGSSVSSSRQEDLMMHSNNNILPPYSTKSAQEPLQLPLSIQIGDYNVWDFLAEVMSNRAATSSEMSTFRLSPAYSLYLALRSFHTHNKPYSVQFFSRIESNFKQIAQECSSKDDLIFWLANASEFNHLVERDTELKASRYGKISVEIERIFRRLVAVLQSVIRPAARALLDIHLNDHDATGDVIHLLDTTMRQARICGLNAALTIQLCGHLLHMVNAFVFNSLVSVNLPAAQLNTRLGKCLQYRIESIHRFCERMGVEMAAECHLDRSRQAANLLATQKNDVAALGSTCYKLNSLQVVHILSGFEPDDGEIPCDDDVVDRICRLAEKQADKLTLEDGQRVTLEESDELNLPFLIPQDGYFVEQFRTVPDGLWQYLQQLQHRRLCHTVSLTPAPPAAMTHSMHAMHIGASDAHYHQHQHQQQQNPIVRSVSQTTLTSIPTTQFGDSFGSAVSDTISKVTLRKNGGGIGLSIVAAQGVGDRQMGIYVKKVVEGTPAAHDGRLETGDQLLSVNGHSLIGISQEEFVFQ,not soluble

# Reference: the DeepSol protein solubility set
